Measurements: patent US10920201B2, “Rice EPSPS mutant, encoding gene and use thereof” (GEVOTO LLC, priority 2016, dated 2021)

Columns and labels:
[1] = test system: EPSPS and C-P Lyase deficient E. coli; test: Growth of transformed E. coli on solid culture media containing glyphosate (FIG. 4); type: cell-based; conditions: solid culture medium
Description: Besides, the glyphosate-resistant CP4-EPSPS gene mostly widely used currently in genetically modified crops in agriculture was further used in the present example as positive control, and E. coli respectively transformed by OsE gene (negative control group), OsEM gene (experiment group) and CP4-EPSPS gene (positive control group) were inoculated onto solid culture media respectively containing glyphosate of concentration of 0 mM, 1 mM, 50 mM, 100 mM, to observe growth states of bacterial colony in each group.

soybean plants = test: Glyphosate spray test on soybean plants transformed with OsEM gene; type: in vivo
Text: In the present example, wild-type soybean plants were taken as controls, the positive soybean plants transformed with OsEM gene obtained in Example 4 were taken as experiment group, to verify glyphosate resistance of OsEM gene in plants. An experiment method is as follows:
1 The OsEM transformed positive soybean plants 10-20 cm tall and 3 wild-type soybean plants with a similar size were numbered and then randomly arranged in an experiment area (preventing leaves from overlapping).
2 The area with the plants was measured, and glyphosate was sprayed at a dosage of 1060 g/hectare (0.106 g/m^2).
3 Commercially available Roundup® 41% ammonium glyphosate was used. Amount was calculated according to the experiment area and dosage of 0.106 g/m^2, then diluted 20 times with water, and uniformly sprayed on the plants in the experiment area.
4 After leaf surfaces were dry, the plants in the experiment group and the control group were moved into a greenhouse.
5 Growth states of the plants were evaluated and recorded.
Afterwards, plants grew well were transplanted to larger pots to grow, and the glyphosate (having a concentration of […]) was sprayed for a second time on a 21st day. After 2 weeks, the growth states of the plants in each group were captured and recorded.

[2] = test system: EDCE (E. coli DH5a with EPSPS gene and C-P Lyase gene being knocked out); test: Glyphosate resistance of transformed E. coli in liquid screening culture media (growth saturation index); type: cell-based; set-up: key to Growth Saturation Index: saturation index=0, no growth; saturation index=1, little growth; saturation index=2, half-saturated growth; saturation index=3, flourishing growth, but still having room to grow; saturation index=4, rapid growth, the bacteria having reached a highest (saturated) concentration in the culture media or the growth having reached the limit
Text: 1.6 A double knockout E. coli was transformed (E. Coli DH5a with EPSPS gene and C-P Lyase gene being knocked out, named as EDCE, wherein for a preparation method thereof, reference can be made to a Chinese invention patent with the filing number CN2016103256926, entitled “Method for Screening Glyphosate-resistant Gene, EPSPS Mutant Gene, Defect Strain and Application Thereof”).
In the above, the screening culture media were culture media obtained by adding antibiotic, Spec (Spectinomycin), Gen (Gentamycin), Amp (Ampicillin) of certain concentrations and glyphosate of different concentrations, with M9 as a basic medium. Basic components of the M9 culture medium were as follows: Na2HPO4 13˜14 g/L, KH2PO4 5.7˜6.3 g/L, NaCl 0.9˜1.1 g/L, NH4Cl 1.8˜2.2 g/L, glucose 37˜43 g/L, MgSO4˜7H2O 48˜52 g/L, and CaCl2) 21˜23 g/L.
In the present example, EDCE transformed by the wild-type rice EPSPS gene (named as OsE gene, SEQ ID NO. 3) was taken as a control group, and the monoclonal resistant bacterium containing the OsEM gene (SEQ ID NO. 2) obtained in step 3.1 of Example 1 was taken as an experiment group, to detect the glyphosate resistance of the OsEM gene in bacteria.
The control group and the experiment group were respectively inoculated into culture media (screening culture media) containing glyphosate concentrations of 0 mM, 5 mM, 10 mM, 20 mM, 50 mM, 75 mM, and 100 mM, to observe growth states of bacterial colony in each group, denoted by growth saturation index (saturation index=0, no growth; saturation index=1, little growth; saturation index=2, half-saturated growth; saturation index=3, flourishing growth, but still having room to grow; saturation index=4, rapid growth, the bacteria having reached a highest (saturated) concentration in the culture media or the growth having reached the limit).

[3] = 7th day after first glyphosate spray, 1060 g/hectare (0.106 g/m^2)

B1: OsEM: Rice EPSPS mutant gene (SEQ ID NO. 2) encoding 5-enolpyruvylshikimate-3-phosphate synthase mutant (SEQ ID NO. 1), 8 amino acid mutations (protein)
chain: MASNAAAAAAKAEEIVLQPIREISGAVQLPGSKSLSNRILLLSALSEGTTVVDNLLNSEDVHYMLEALKGLGLSVEADKVAKRAVVVGCGGKFPVEKDAKEEVQLFLGNAATAMRSLTAAVTAAGGNATYVLDGVPRMRERPIGDLVVGLKRLGADVDCFLGTECPPVRVKGIGGLPGGKVKLSGSISSQYLSALLMAAPLALGDVEIEIIDRLISIPYVEMTLRLMERFGVKAEHSDSWDRFYIKGGQQYESPGNAYVEGDASSASYFLAGAAITGGTVTVQGCGTTSLQGDVKFAEVLEMMGAKVTWTDTSVTVTGPPREPYGKKHLKAVDVNMNKMPDAAMTLAVVALFADGPTAIRDVASWRVKETERMVAIRTELTKLGASVEEGPDYCIITPPEKLNITAIDTYDDHRMAMAFSLAACADVPVTIRDPGCTRKTFPNYFDVLSTFVRN
growth state of bacterial colony ([1]; 0 mM glyphosate): could grow normally
growth state of bacterial colony ([1]; 1 mM glyphosate): could grow normally
growth state of bacterial colony ([1]; 50 mM glyphosate): could grow normally
growth state of bacterial colony ([1]; 100 mM glyphosate): could grow normally
growth state of plants after second glyphosate spray (FIG. 7) (soybean plants; 1.06 g/m^2 glyphosate sprayed on 21st day, recorded after 2 weeks): could grow continuously
number of plants with Growth State + (low glyphosate resistance) (soybean plants; [3]): 3
number of plants with Growth State ++ (medium glyphosate resistance) (soybean plants; [3]): 1
number of plants with Growth State +++ (high glyphosate resistance) (soybean plants; [3]): 4
number of plants with Growth State − (no glyphosate resistance) (soybean plants; [3]): 2
glyphosate concentration to which resistance is endowed (soybean plants; soybean plants transformed by the gene): 1.06 g/m^2
Growth Saturation Index ([2]; 0 mM glyphosate in culture medium): 4
Growth Saturation Index ([2]; 5 mM glyphosate in culture medium): 4
Growth Saturation Index ([2]; 10 mM glyphosate in culture medium): 4
Growth Saturation Index ([2]; 20 mM glyphosate in culture medium): 4
Growth Saturation Index ([2]; 50 mM glyphosate in culture medium): 4
Growth Saturation Index ([2]; 75 mM glyphosate in culture medium): 4
Growth Saturation Index ([2]; 100 mM glyphosate in culture medium): 4
glyphosate concentration to which resistance is endowed ([2]; E. coli transformed by the gene): 100 mM
